# B1: Jouberin (Homo sapiens), Q8N157 (parent)
# chain: MPTAESEAKVKTKVRFEELLKTHSDLMREKKKLKKKLVRSEENISPDTIRSNLHYMKETTSDDPDTIRSNLPHIKETTSDDVSAANTNNLKKSTRVTKNKLRNTQLATENPNGDASVEEDKQGKPNKKVIKTVPQLTTQDLKPETPENKVDSTHQKTHTKPQPGVDHQKSEKANEGREETDLEEDEELMQAYQCHVTEEMAKEIKRKIRKKLKEQLTYFPSDTLFHDDKLSSEKRKKKKEVPVFSKAETSTLTISGDTVEGEQKKESSVRSVSSDSHQDDEISSMEQSTEDSMQDDTKPKPKKTKKKTKAVADNNEDVDGDGVHEITSRDSPVYPKCLLDDDLVLGVYIHRTDRLKSDFMISHPMVKIHVVDEHTGQYVKKDDSGRPVSSYYEKENVDYILPIMTQPYDFKQLKSRLPEWEEQIVFNENFPYLLRGSDESPKVILFFEILDFLSVDEIKNNSEVQNQECGFRKIAWAFLKLLGANGNANINSKLRLQLYYPPTKPRSPLSVVEAFEWWSKCPRNHYPSTLYVTVRGLKVPDCIKPSYRSMMALQEEKGKPVHCERHHESSSVDTEPGLEESKEVIKWKRLPGQACRIPNKHLFSLNAGERGCFCLDFSHNGRILAAACASRDGYPIILYEIPSGRFMRELCGHLNIIYDLSWSKDDHYILTSSSDGTARIWKNEINNTNTFRVLPHPSFVYTAKFHPAVRELVVTGCYDSMIRIWKVEMREDSAILVRQFDVHKSFINSLCFDTEGHHMYSGDCTGVIVVWNTYVKINDLEHSVHHWTINKEIKETEFKGIPISYLEIHPNGKRLLIHTKDSTLRIMDLRILVARKFVGAANYREKIHSTLTPCGTFLFAGSEDGIVYVWNPETGEQVAMYSDLPFKSPIRDISYHPFENMVAFCAFGQNEPILLYIYDFHVAQQEAEMFKRYNGTFPLPGIHQSQDALCTCPKLPHQGSFQIDEFVHTESSSTKMQLVKQRLETVTEVIRSCAAKVNKNLSFTSPPAVSSQQSKLKQSNMLTAQEILHQFGFTQTGIISIERKPCNHQVDTAPTVVALYDYTANRSDELTIHRGDIIRVFFKDNEDWWYGSIGKGQEGYFPANHVASETLYQELPPEIKERSPPLSPEEKTKIEKSPAPQKQSINKNKSQDFRLGSESMTHSEMRKEQSHEDQGHIMDTRMRKNKQAGRKVTLIE
# partner: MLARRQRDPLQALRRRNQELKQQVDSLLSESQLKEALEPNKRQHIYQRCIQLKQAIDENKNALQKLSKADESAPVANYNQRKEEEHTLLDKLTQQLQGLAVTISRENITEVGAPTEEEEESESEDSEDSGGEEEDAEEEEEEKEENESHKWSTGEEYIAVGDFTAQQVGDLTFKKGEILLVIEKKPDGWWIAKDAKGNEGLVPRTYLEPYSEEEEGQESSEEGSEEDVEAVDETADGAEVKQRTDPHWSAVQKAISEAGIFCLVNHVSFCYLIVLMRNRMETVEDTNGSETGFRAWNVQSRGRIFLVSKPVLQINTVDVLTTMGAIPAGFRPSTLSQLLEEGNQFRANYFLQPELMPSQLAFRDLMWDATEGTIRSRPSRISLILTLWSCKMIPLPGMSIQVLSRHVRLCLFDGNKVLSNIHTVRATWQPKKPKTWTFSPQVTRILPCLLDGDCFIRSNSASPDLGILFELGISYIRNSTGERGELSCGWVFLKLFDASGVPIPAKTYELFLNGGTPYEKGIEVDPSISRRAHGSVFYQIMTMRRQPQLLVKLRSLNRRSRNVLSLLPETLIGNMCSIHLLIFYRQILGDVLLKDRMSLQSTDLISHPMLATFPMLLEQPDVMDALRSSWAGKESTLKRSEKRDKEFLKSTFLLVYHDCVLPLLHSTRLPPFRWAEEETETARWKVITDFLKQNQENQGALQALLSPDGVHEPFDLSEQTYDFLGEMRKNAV
# B2: Jouberin (Homo sapiens), Q8N157 (parent)
# chain: B1 chain
# Variants of: B1
# Details: with nphp1_human NPHP1, O15259
row,effect of a mutation on the interaction,Variant
1,disrupting interaction,V443D

# Variants of: B2
# Details: with hap1_human HAP1, P54257
# Sequence of hap1_human HAP1, P54257 (P54257 whole entry): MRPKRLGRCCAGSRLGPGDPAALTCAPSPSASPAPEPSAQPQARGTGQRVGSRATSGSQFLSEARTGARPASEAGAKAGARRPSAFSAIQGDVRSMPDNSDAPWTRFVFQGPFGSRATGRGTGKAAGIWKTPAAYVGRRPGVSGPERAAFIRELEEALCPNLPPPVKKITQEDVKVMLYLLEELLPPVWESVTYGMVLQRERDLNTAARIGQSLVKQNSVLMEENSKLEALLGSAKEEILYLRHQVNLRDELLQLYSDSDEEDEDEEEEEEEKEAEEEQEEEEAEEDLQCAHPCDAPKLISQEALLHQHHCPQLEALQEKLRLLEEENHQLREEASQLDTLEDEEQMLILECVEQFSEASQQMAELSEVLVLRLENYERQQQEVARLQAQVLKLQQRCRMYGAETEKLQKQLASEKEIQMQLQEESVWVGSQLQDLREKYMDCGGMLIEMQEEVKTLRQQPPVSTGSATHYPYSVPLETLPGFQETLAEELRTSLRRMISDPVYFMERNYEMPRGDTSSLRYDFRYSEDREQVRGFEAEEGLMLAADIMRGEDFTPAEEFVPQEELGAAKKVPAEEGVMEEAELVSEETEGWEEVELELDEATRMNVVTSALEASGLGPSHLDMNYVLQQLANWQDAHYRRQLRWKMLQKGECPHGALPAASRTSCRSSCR
row,effect of a mutation on the interaction,Variant
1,decreasing interaction,V443D

# Source: IntAct's records for PubMed 23532844
